The values that follow come from publication PMC6882493 (Emerging Microbes & Infections, 2019).

For data set [1], the system named is PNGM-1.
Target sequence in this assay (Z9H0G7B495 1-372 H256A limits assumed): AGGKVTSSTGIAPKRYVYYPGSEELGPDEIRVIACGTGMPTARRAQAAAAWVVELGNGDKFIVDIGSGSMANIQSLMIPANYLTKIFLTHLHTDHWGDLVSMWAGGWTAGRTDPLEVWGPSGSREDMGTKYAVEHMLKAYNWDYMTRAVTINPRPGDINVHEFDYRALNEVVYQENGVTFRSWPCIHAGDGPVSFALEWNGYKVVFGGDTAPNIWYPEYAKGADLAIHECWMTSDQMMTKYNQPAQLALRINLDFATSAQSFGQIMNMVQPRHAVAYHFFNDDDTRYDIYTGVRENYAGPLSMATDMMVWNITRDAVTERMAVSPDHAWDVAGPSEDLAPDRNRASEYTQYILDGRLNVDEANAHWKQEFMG
Data set [2] deals with PNGM-1. The note with it: read-out: PNGM-1^a; 50 mM MES pH 7.0, 30 °C, 100 μM ZnCl2, 100 μg/ml BSA; footnote: identical to data from authors' earlier reference 13; cited from earlier work.
Target sequence in this assay (Z9H0G7B495 1-372 limits assumed): as the sequence (Z9H0G7B495 1-372 H256A limits assumed) above, with A256H counted along it
Data set [3] deals with PNGM-1. The source holds these as a separate data set.
Target sequence in this assay (Z9H0G7B495 1-372 H256A limits assumed): as the sequence (Z9H0G7B495 1-372 H256A limits assumed) above
Data set [4] concerns PNGM-1. Conditions: read-out: PNGM-1^a; 50 mM MES pH 7.0, 30 °C, 100 μM ZnCl2, 100 μg/ml BSA; footnote: identical to data from authors' earlier reference 13; cited from earlier work. This is another data set of the same source.
Target sequence in this assay (Z9H0G7B495 1-372 limits assumed): as the sequence (Z9H0G7B495 1-372 H256A limits assumed) above, with A256H counted along it
Data set [5] has as its system PNGM-1. This is another data set of the same source.
Target sequence in this assay (Z9H0G7B495 1-372 H256A limits assumed): as the sequence (Z9H0G7B495 1-372 H256A limits assumed) above
Data set [6] concerns PNGM-1. The note with it: read-out: PNGM-1^a; 50 mM MES pH 7.0, 30 °C, 100 μM ZnCl2, 100 μg/ml BSA; footnote: identical to data from authors' earlier reference 13; cited from earlier work. This is another data set of the same source.
Target sequence in this assay (Z9H0G7B495 1-372 limits assumed): as the sequence (Z9H0G7B495 1-372 H256A limits assumed) above, with A256H counted along it
Data set [7] deals with PNGM-1. Conditions: read-out: PNGM-1^a; 50 mM MES pH 7.0, 30 °C, 100 μM ZnCl2, 100 μg/ml BSA; footnote: identical to data from authors' earlier reference 13; cited from earlier work. The source holds these as a separate data set.
Target sequence in this assay (Z9H0G7B495 1-372 limits assumed): as the sequence (Z9H0G7B495 1-372 H256A limits assumed) above, with A256H counted along it
The subject of data set [8] is PNGM-1. The note with it: read-out: PNGM-1^a; 50 mM MES pH 7.0, 30 °C, 100 μM ZnCl2, 100 μg/ml BSA; footnote: identical to data from authors' earlier reference 13; cited from earlier work. This is another data set of the same source.
Target sequence in this assay (Z9H0G7B495 1-372 limits assumed): as the sequence (Z9H0G7B495 1-372 H256A limits assumed) above, with A256H counted along it
In data set [9] the test system is PNGM-1. The note with it: read-out: PNGM-1^a; 50 mM MES pH 7.0, 30 °C, 100 μM ZnCl2, 100 μg/ml BSA; footnote: identical to data from authors' earlier reference 13; cited from earlier work. The source holds these as a separate data set.
Target sequence in this assay (Z9H0G7B495 1-372 limits assumed): as the sequence (Z9H0G7B495 1-372 H256A limits assumed) above, with A256H counted along it
The subject of data set [10] is C[C@@H](O)[C@H]1C(=O)N2C(C(=O)O)=C(SCCN=CN)C[C@H]12. The data set is described as follows: purified protein. Conditions: 50 mM MES pH 7.0, 30 °C, 100 μM ZnCl2, 100 μg/ml BSA.
The subject of data set [11] is C[C@@H](O)[C@H]1C(=O)N2C(C(=O)O)=C(S[C@@H]3CN[C@H](C(=O)N(C)C)C3)[C@H](C)[C@H]12. The data set is described as follows: purified protein. The note with it: 50 mM MES pH 7.0, 30 °C, 100 μM ZnCl2, 100 μg/ml BSA.
Data set [12] concerns C[C@@H](O)[C@H]1C(=O)N2C(C(=O)O)=C(S[C@@H]3CN[C@H](C(=O)Nc4cccc(C(=O)O)c4)C3)[C@H](C)[C@H]12. The data set is described as follows: purified protein. The note with it: 50 mM MES pH 7.0, 30 °C, 100 μM ZnCl2, 100 μg/ml BSA.

Where two headings read alike, the source gives them in different places.

Take `CO/N=C(\C(=O)N[C@@H]1C(=O)N2C(C(=O)O)=C(COC(C)=O)CS[C@H]12)c1csc(N)n1` [cefotaxime]: the Km was 3.1 ± 0.1 µM in the data set with PNGM-1 [1] and 3.3 ± 0.1 µM with PNGM-1 [2].

With `CO[C@@]1(NC(=O)Cc2cccs2)C(=O)N2C(C(=O)O)=C(COC(N)=O)CS[C@@H]21` [cefoxitin], the Km was 3.8 ± 0.1 µM in the data set on PNGM-1 [3] and 4.3 ± 0.1 µM with PNGM-1 [4].

On to `CC(C)(O/N=C(\C(=O)N[C@@H]1C(=O)N2C(C(=O)[O-])=C(C[n+]3ccccc3)CS[C@H]12)c1csc(N)n1)C(=O)O` [ceftazidime], for which the Km in the data set with PNGM-1 [5] is 15.4 ± 0.1 µM; with PNGM-1 [6], 15.9 ± 0.2 µM.

Take `C[C@@H](O)[C@H]1C(=O)N2C(C(=O)O)=C(S[C@@H]3CN[C@H](C(=O)Nc4cccc(C(=O)O)c4)C3)[C@H](C)[C@H]12` [ertapenem]: the Km with PNGM-1 [7] is 1.9 ± 0.1 µM.

Consider `C[C@@H](O)[C@H]1C(=O)N2C(C(=O)O)=C(SCCN=CN)C[C@H]12` [imipenem], for which the Km with PNGM-1 [8] is 2 ± 0.1 µM.

Take `C[C@@H](O)[C@H]1C(=O)N2C(C(=O)O)=C(S[C@@H]3CN[C@H](C(=O)N(C)C)C3)[C@H](C)[C@H]12` [meropenem]: the Km in the data set with PNGM-1 [9] is 1.9 ± 0.1 µM.

In the case of AIM-1 (Pseudomonas aeruginosa), in [10], the Km stood at 3.8 ± 0.1 µM, the kcat was found to be 11.128 ± 0.0001 s⁻¹ and the kcat/Km amounted to 2.9e+06 ± 200000 M⁻¹ s⁻¹. In data set [11], the Km was 4.6 ± 0.1 µM and the kcat worked out at 15.409 ± 0.0001 s⁻¹. Besides, in data set [12], the Km came out at 5.0 ± 0.1 µM, the turnover number (kcat) was 12.376 ± 0.0001 s⁻¹ and the kcat/Km is 2.5e+06 ± 200000 M⁻¹ s⁻¹.

For FEZ-1 (Fluoribacter gormanii), in [10], the Km is 3.5 ± 0.1 µM, the kcat amounted to 0.763 ± 0.001 s⁻¹ and the kcat/Km amounted to 220000 ± 10000 M⁻¹ s⁻¹. Moreover, in data set [11], the Km is 4.2 ± 0.1 µM, the catalytic constant (kcat) is 0.773 ± 0.001 s⁻¹ and the kcat/Km turned out to be 180000 ± 10000 M⁻¹ s⁻¹. Besides, in data set [12], the Km came to 4.6 ± 0.1 µM and the kcat turned out to be 0.667 ± 0.001 s⁻¹.

As to GOB-18 (Elizabethkingia meningoseptica), in data set [10], the Km was found to be 4.8 ± 0.1 µM, the catalytic constant (kcat) amounted to 6.188 ± 0.003 s⁻¹ and the specificity constant (kcat/Km) is 1.3e+06 ± 200000 M⁻¹ s⁻¹. Also, in [11], the Km came to 5.7 ± 0.1 µM, the kcat was found to be 8.568 ± 0.001 s⁻¹ and the specificity constant (kcat/Km) stood at 1.5e+06 ± 100000 M⁻¹ s⁻¹. In addition, in data set [12], the Km amounted to 6.3 ± 0.1 µM, the kcat stood at 6.882 ± 0.002 s⁻¹ and the kcat/Km was determined as 1.1e+06 ± 200000 M⁻¹ s⁻¹.

The term kcat denotes the maximal rate divided by the concentration of active sites. As usually defined, the kcat/Km is the turnover number divided by the Michaelis constant.
